US20240117049A1 (Hoffmann-La Roche, published 2024)
Where two headings read alike, the source gives them in different places.

Assays:
[1] = biological target: T1, biotinylated recombinant human FAP (human, UniProt Q12884 27-760, biotinylated); assay: SPR (Biacore)
T1 construct: the Biacore paragraphs only say biotinylated (recombinant) human FAP; also called biotinylated human FAP; recombinant huFAP

[2] = biological target: T2, biotinylated human OX40 (human, UniProt P43489 29-214, limits assumed, biotinylated); assay: SPR, stressed against unstressed sample, normalised to anti-hu IgG capture
T2 sequence: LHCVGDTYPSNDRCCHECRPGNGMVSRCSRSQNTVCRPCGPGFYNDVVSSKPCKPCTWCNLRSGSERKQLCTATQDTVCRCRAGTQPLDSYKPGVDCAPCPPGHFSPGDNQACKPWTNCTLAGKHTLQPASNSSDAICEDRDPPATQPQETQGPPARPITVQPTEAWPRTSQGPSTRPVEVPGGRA

[3] = biological target: T1, biotinylated recombinant human FAP; assay: as above
[4] = biological target: T3, human Fibroblast Activation Protein (FAP) expressed on cells (human, UniProt Q12884 1-760); assay: flow cytometry, NIH/3T3-huFAP clone 19 cells
T3 construct: cell surface FAP on transfected HEK cells or NIH/3T3-huFAP clone 19 fibroblasts; also called huFAP; human FAP-transfected HEK cells

[5] = biological target: T4, FcRn (biotinylated, coupled to streptavidin-sepharose); assay: FcRn affinity chromatography, pH gradient, retention compared to standards
T4 construct: also called neonatal Fc receptor

[6] = biological target: T5, human OX40 on cells (human, UniProt P43489 29-277); assay: cell-based or functional assay
T5 sequence: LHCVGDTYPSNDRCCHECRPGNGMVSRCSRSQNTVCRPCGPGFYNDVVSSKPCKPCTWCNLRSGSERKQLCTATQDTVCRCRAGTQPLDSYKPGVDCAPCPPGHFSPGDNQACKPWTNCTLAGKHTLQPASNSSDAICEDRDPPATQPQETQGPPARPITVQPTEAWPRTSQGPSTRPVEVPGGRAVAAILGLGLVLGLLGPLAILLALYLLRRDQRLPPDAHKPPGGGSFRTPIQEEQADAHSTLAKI

[7] = biological target: T5, human OX40 on cells; assay: flow cytometry, activated human CD4+ T cells
[8] = biological target: T5, human OX40 on cells; assay: cell-based or functional assay; remark: listed apart in the source
[9] = biological target: T5, human OX40 on cells; assay: cell-based or functional assay; remark: listed apart in the source
[10] = biological target: T5, human OX40 on cells; assay: cell-based or functional assay; remark: listed apart in the source
[11] = biological target: T5, human OX40 on cells; assay: cell-based or functional assay; remark: listed apart in the source
[12] = biological target: T5, human OX40 on cells; assay: cell-based or functional assay; remark: listed apart in the source
[13] = biological target: T1, biotinylated recombinant human FAP; assay: SPR (Biacore), biotinylated huFAP on CAP chip, Fab as analyte, 1:1 fit

T4 sequence (P55899 24-297, chain 1 of 2): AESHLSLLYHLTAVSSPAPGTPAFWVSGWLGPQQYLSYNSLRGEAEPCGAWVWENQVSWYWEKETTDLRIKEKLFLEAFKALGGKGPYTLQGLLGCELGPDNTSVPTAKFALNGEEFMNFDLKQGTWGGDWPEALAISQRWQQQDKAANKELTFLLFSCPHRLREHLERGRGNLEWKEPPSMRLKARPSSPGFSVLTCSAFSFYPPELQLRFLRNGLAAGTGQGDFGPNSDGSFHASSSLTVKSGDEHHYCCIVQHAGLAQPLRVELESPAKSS
T4 sequence (P61769 21-119, chain 2 of 2, further chain): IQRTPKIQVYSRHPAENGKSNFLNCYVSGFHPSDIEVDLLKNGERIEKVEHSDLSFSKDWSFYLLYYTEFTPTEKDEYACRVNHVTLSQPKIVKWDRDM

Binder	Kd [1] [nM]	T ½ [1] [h]	koff [1] [s⁻¹]	kon [1] [M⁻¹ s⁻¹]	binding activity [%] after 2 weeks at pH 6.0/40°C [2] [%]	binding activity [%] after 2 weeks at pH 7.4/37°C [2] [%]	binding activity [%] after 2 weeks at pH 6.0/40°C [3] [%]	binding activity [%] after 2 weeks at pH 7.4/37°C [3] [%]	EC50 [4] [nM]	FcRn affinity (relative retention) [5]	EC50 of NFκB activation, HeLa_hOx40_NFkB_Luc1, w/ hu FAP+ fibroblasts [6] [nM]	EC50 [7] [nM]	AUC of CD25 upregulation compared to reference compound [%] [8] [%]	other results
P1AE1702_Fab, humanized anti-FAP Fab VH2G2a/VL2G2a (Fab, V domains shown) VH: EVQLLESGGGLVQPGGSLRLSCAASGYTLTDYNMDWVRQAPGKGLEWVGDIYPNTGGTIYNQKFKGRFTISIDKSKNTAYLQMNSLRAEDTAVYYCTRFRGIHYAMDYWGQGTTVTVSS VL: DIQMTQSPSSLSASVGDRVTITCRASESVDNYGLSFINWFQQKPGQPPKLLIYGTSNRGSGVPSRFSGSGSGTDFTLTISSLQPEDFAMYFCQQSNEVPYTFGGGTKVEIK	0.213	1.8	0.000107	502000										
P1AE8875 OX40(MOXR0916) x FAP (1G1a) (3 + 1) C-terminal crossfab fusion (bispecific antibody, human IgG1, kappa, L234A L235A, also called MOX0916 3+1) heavy 1: not shown heavy 2: EVQLVQSGAEVKKPGASVKVSCKASGYTFTDSYMSWVRQAPGQGLEWIGDMYPDNGDSSYNQKFRERVTITRDTSTSTAYLELSSLRSEDTAVYYCVLAPRWYFSVWGQGTLVTVSSASTKGPSVFPLAPSSKSTSGGTAALGCLVEDYFPEPVTVSWNSGALTSGVHTFPAVLQSSGLYSLSSVVTVPSSSLGTQTYICNVNHKPSNTKVDEKVEPKSCGGGGSGGSGGEVQLVQSGAEVKKPGASVKVSCKASGYTFTDSYMSWVRQAPGQGLEWIGDMYPDNGDSSYNQKFRERVTITRDTSTSTAYLELSSLRSEDTAVYYCVLAPRWYFSVWGQGTLVTVSSASTKGPSVFPLAPSSKSTSGGTAALGCLVEDYFPEPVTVSWNSGALTSGVHTFPAVLQSSGLYSLSSVVTVPSSSLGTQTYICNVNHKPSNTKVDEKVEPKSCDKTHTCPPCPAPEAAGGPSVFLFPPKPKDTLMISRTPEVTCVVVDVSHEDPEVKFNWYVDGVEVHNAKTKPREEQYNSTYRVVSVLTVLHQDWLNGKEYKCKVSNKALGAPIEKTISKAKGQPREPQVCTLPPSRDELTKNQVSLSCAVKGFYPSDIAVEWESNGQPENNYKTTPPVLDSDGSFFLVSKLTVDKSRWQQGNVFSCSVMHEALHNHYTQKSLSLSPG light 1: not shown light 2: EIVLTQSPATLSLSPGERATLSCRASESVDNYGLSFINWFQQKPGQAPRLLIYGTSNRGSGIPARFSGSGSGTDFTLTISSLEPEDFAVYFCQQSNEVPYTFGGGTKVEIKSSASTKGPSVFPLAPSSKSTSGGTAALGCLVKDYFPEPVTVSWNSGALTSGVHTFPAVLQSSGLYSLSSVVTVPSSSLGTQTYICNVNHKPSNTKVDKKVEPKSC					> 90	> 90	> 90	> 90	2.7	-0.22	0.31	0.69	100	EC50 of NFκB activation, HeLa_hOx40_NFkB_Luc1, w/o crosslinking [6]: 3.94 nM; EC50 of CD25 upregulation on CD4+ T cells, suboptimal TCR stimulation of human PBMC with FAP+ fibroblasts [8]: 0.02 nM
P1AE8872 OX40(MOXR0916) x FAP (1G1a) (2 + 1) C-terminal crossfab fusion (bispecific antibody, human IgG1, kappa, L234A L235A, also called MOX0916 2+1) heavy 1: not shown heavy 2: EVQLVQSGAEVKKPGASVKVSCKASGYTFTDSYMSWVRQAPGQGLEWIGDMYPDNGDSSYNQKFRERVTITRDTSTSTAYLELSSLRSEDTAVYYCVLAPRWYFSVWGQGTLVTVSSASTKGPSVFPLAPSSKSTSGGTAALGCLVEDYFPEPVTVSWNSGALTSGVHTFPAVLQSSGLYSLSSVVTVPSSSLGTQTYICNVNHKPSNTKVDEKVEPKSCDKTHTCPPCPAPEAAGGPSVFLFPPKPKDTLMISRTPEVTCVVVDVSHEDPEVKFNWYVDGVEVHNAKTKPREEQYNSTYRVVSVLTVLHQDWLNGKEYKCKVSNKALGAPIEKTISKAKGQPREPQVCTLPPSRDELTKNQVSLSCAVKGFYPSDIAVEWESNGQPENNYKTTPPVLDSDGSFFLVSKLTVDKSRWQQGNVFSCSVMHEALHNHYTQKSLSLSPG light 1: not shown light 2: EIVLTQSPATLSLSPGERATLSCRASESVDNYGLSFINWFQQKPGQAPRLLIYGTSNRGSGIPARFSGSGSGTDFTLTISSLEPEDFAVYFCQQSNEVPYTFGGGTKVEIKSSASTKGPSVFPLAPSSKSTSGGTAALGCLVKDYFPEPVTVSWNSGALTSGVHTFPAVLQSSGLYSLSSVVTVPSSSLGTQTYICNVNHKPSNTKVDKKVEPKSC					> 90	> 90	> 90	> 90	1.78	0.15	0.19	0.9	106	EC50 of CD25 upregulation on CD4+ T cells, suboptimal TCR stimulation of human PBMC with FAP+ fibroblasts [8]: 0.01 nM
P1AF6455 OX40(CLC563) x FAP (1G1a_EPKSCS) (3 + 1) C-terminal crossfab fusion (bispecific antibody, human IgG1, kappa, L234A L235A, also called CLC-563, S-variant 3+1; C2) heavy 1: not shown heavy 2: not shown light 1: not shown light 2: EIVLTQSPATLSLSPGERATLSCRASESVDNYGLSFINWFQQKPGQAPRLLIYGTSNRGSGIPARFSGSGSGTDFTLTISSLEPEDFAVYFCQQSNEVPYTFGGGTKVEIKSSASTKGPSVFPLAPSSKSTSGGTAALGCLVKDYFPEPVTVSWNSGALTSGVHTFPAVLQSSGLYSLSSVVTVPSSSLGTQTYICNVNHKPSNTKVDKKVEPKSCS					100	100	98	96	1.71	-0.1		1.47		EC50 of suppression of TGFβ-induced FoxP3 (FoxP3 MFI) on CD4+ CD25+ Treg cells, FAP-coated beads [9]: 0.25 nM; EC50 of NFκB activation, HeLa_hOx40_NFkB_Luc1, w/ hu FAP+ fibroblasts [10]: 0.2 nM; EC50 of NFκB activation, HeLa_hOx40_NFkB_Luc1, w/o crosslinking [10]: 0.8 nM; EC50 of increased CEACAM5 TCB mediated cytokine secretion of human PBMC with FAP+ fibroblasts [11]: 0.058 nM; EC50 of CD25 upregulation on CD4+ T cells, suboptimal TCR stimulation of human PBMC with FAP+ fibroblasts [12]: 0.003 nM
P1AE1690_Fab, humanized anti-FAP Fab VH1G2a/VL1G1a (Fab, V domains shown) VH: QVQLVQSGAEVKKPGASVKVSCKASGYTLTDYNMDWVRQAPGKSLEWIGDIYPNTGGTIYNQKFKGRVTMTIDKSTSTVYMELSSLRSEDTAVYYCTRFRGIHYAMDYWGQGTTVTVSS VL: EIVLTQSPATLSLSPGERATLSCRASESVDNYGLSFINWFQQKPGQAPRLLIYGTSNRGSGIPARFSGSGSGTDFTLTISSLEPEDFAVYFCQQSNEVPYTFGGGTKVEIK	0.114	3.05	6.3e-05	551000										
P1AE1693_Fab, humanized anti-FAP Fab VH1G2a/VL1G2a (Fab, V domains shown) VH: QVQLVQSGAEVKKPGASVKVSCKASGYTLTDYNMDWVRQAPGKSLEWIGDIYPNTGGTIYNQKFKGRVTMTIDKSTSTVYMELSSLRSEDTAVYYCTRFRGIHYAMDYWGQGTTVTVSS VL: EIVLTQSPATLSLSPGERATLSCRASESVDNYGLSFINWFQQKPGQPPRLLIYGTSNRGSGIPARFSGSGSGTDFTLTISSLEPEDFAVYFCQQSNEVPYTFGGGTKVEIK	0.135	2.68	7.18e-05	530000										
P1AE1689_Fab, humanized anti-FAP Fab VH1G1a/VL1G1a (Fab, V domains shown, also called FAP antibody 1G1a; H212) VH: QVQLVQSGAEVKKPGASVKVSCKASGYTLTDYNMDWVRQAPGQGLEWIGDIYPNTGGTIYNQKFKGRVTMTIDTSTSTVYMELSSLRSEDTAVYYCTRFRGIHYAMDYWGQGTTVTVSS VL: EIVLTQSPATLSLSPGERATLSCRASESVDNYGLSFINWFQQKPGQAPRLLIYGTSNRGSGIPARFSGSGSGTDFTLTISSLEPEDFAVYFCQQSNEVPYTFGGGTKVEIK	0.095	4.57	4.21e-05	443000										
P1AD3690, untargeted tetravalent OX40 (49B4) antigen binding molecule (4+0) (antibody, human IgG1, kappa, L234A L235A) heavy: not shown light: DIQMTQSPSTLSASVGDRVTITCRASQSISSWLAWYQQKPGKAPKLLIYDASSLESGVPSRFSGSGSGTEFTLTISSLQPDDFATYYCQQYSSQPYTFGQGTKVEIKRTVAAPSVFIFPPSDEQLKSGTASVVCLLNNFYPREAKVQWKVDNALQSGNSQESVTEQDSKDSTYSLSSTLTLSKADYEKHKVYACEVTHQGLSSPVTKSFNRGEC											0.18		13	EC50 of NFκB activation, HeLa_hOx40_NFkB_Luc1, w/o crosslinking [6]: 0.23 nM
4B9_Fab (Fab, V domains shown, Fab; also called anti-FAP 4B9 Fab) VH: EVQLLESGGGLVQPGGSLRLSCAASGFTFSSYAMSWVRQAPGKGLEWVSAIIGSGASTYYADSVKGRFTISRDNSKNTLYLQMNSLRAEDTAVYYCAKGWFGGFNYWGQGTLVTVSS VL: EIVLTQSPGTLSLSPGERATLSCRASQSVTSSYLAWYQQKPGQAPRLLINVGSRRATGIPDRFSGSGSGTDFTLTISRLEPEDFAVYYCQQGIMLPPTFGQGTKVEIK	0.279	0.917	0.000208	747000										Kd [13]: 0.43 nM; koff [13]: 0.00078 s⁻¹; kon [13]: 1.82e+06 M⁻¹ s⁻¹
